Laboratory results taken from patent publication US20210139588A1 (STCUBE, published 2021).

B1: anti-glycPD-1 monoclonal antibody STM432 (antibody, V domains shown)
VH: EVMLVEPGGGLVKPGGSLKLSCAASGFTFSSYGMSWVRQTPEKRLEWVATISGGGANTYYPDTVKGRFTISRDNAKNTLYLQMNSLRSEDTALYYCARYGYDTVFAYWGQGTLVTVSA
VL: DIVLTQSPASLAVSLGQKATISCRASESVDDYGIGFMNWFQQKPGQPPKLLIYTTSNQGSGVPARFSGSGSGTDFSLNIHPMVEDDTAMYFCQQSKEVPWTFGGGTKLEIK
notes: Mouse monoclonal antibody from a hybridoma; also called MAb STM432
B2: 4NQ mutant (unglycosylated) PD-1 expressed on 293T cells (PD-1-Flag) (receptor)
chain: LDSPDRPWNPPTFSPALLVVTEGDQATFTCSFSQTSESFVLNWYRMSPSQQTDKLAAFPEDRSQPGQDCRFRVTQLPNGRDFHMSVVRARRQDSGTYLCGAISLAPKAQIKESLRAELRVTERRAEVPTAHPSPSPRPAGQFQTLVVGVVGGLLGSLVLLVWVLAVICSRAARGTIGARRTGQPLKEDPSAVPVFSVDYGELDFQWREKTPEPPVPCVPEQTEYATIVFPSGMGTSSPARRGSADGPRSAQPLRPEDGHCSWPL
notes: also called PD-1 4NQ; not shown: Flag tag

Columns and labels:
[1] = target: T1, N49Q mutant PD-1-Fc protein (Homo sapiens (Human), UniProt Q15116 25-170); assay: Western blot of PD-1-Fc proteins
T1 construct: also called PD-1 with a mutant glycosylation site at position 49; not shown: Fc portion

[2] = target: T2, N74Q mutant PD-1-Fc protein (Homo sapiens (Human), UniProt Q15116 25-170); assay: Western blot of PD-1-Fc proteins
T2 construct: also called PD-1 with a mutant glycosylation site at position 74; not shown: Fc portion

PD-1-His = target: T3, PD-1-His (Homo sapiens (Human), UniProt Q15116 25-170, limits assumed); assay: BIACORE (SPR), antigen PD-1-His
T3 construct: also called glycosylated PD-1 (BIACORE antigen); not shown: His tag

[3] = target: T4, wild type (glycosylated) PD-1 expressed on 293T cells (PD-1-Flag) (human, UniProt Q15116 25-288, N-linked glycosylation at N49, N58, N74 and N116); assay: flow cytometry on 293T cells; reference: 4NQ PD-1 cells
T4 construct: also called PD-1 WT; not shown: Flag tag
Procedure: (§1) Flow Cytometry. Cells overexpressing PD-1 wild type and mutant proteins or control vector were isolated by trypsinization and collected in Cell Staining Buffer (CSB) (BioLegend, San Diego, Calif., US) at 2×10⁶ cells/mL. 50 μL of cells were aliquoted to a 96 well round-bottom plate, to which 50 μL of 20 μg/mL primary antibody was added, followed by gentle mixing and 1 h incubation at 4° C. in the dark. Cells were washed with CSB, incubated with anti-mouse IgG-PE conjugate (10 μg/mL) with DAPI (1:100) 30 minutes 21° C. in the dark. Cells were washed and data acquired using Guava EasyCyte HT (Millipore Darmstadt, Del.) or FACS Celesta (Becton Dickinson, Franklin Lakes, N.J., US) flow cytometer.

[4] = target: T4, wild type (glycosylated) PD-1 expressed …; assay: flow cytometry on 293T cells expressing the PD-1 form, labeled secondary antibody
Procedure: as §1

[5] = target: T5, N49Q mutant PD-1 expressed on 293T cells (PD-1-Flag) (human, UniProt Q15116 25-288); assay: as above
T5 construct: also called N49Q PD-1; not shown: Flag tag
Procedure: as §1

[6] = target: T6, N58Q mutant PD-1 expressed on 293T cells (PD-1-Flag) (human, UniProt Q15116 25-288); assay: as above
T6 construct: also called N58Q PD-1; not shown: Flag tag
Procedure: as §1

[7] = target: T7, N74Q mutant PD-1 expressed on 293T cells (PD-1-Flag) (human, UniProt Q15116 25-288); assay: as above
T7 construct: also called N74Q PD-1; not shown: Flag tag
Procedure: as §1

[8] = target: T8, N116Q mutant PD-1 expressed on 293T cells (PD-1-Flag) (human, UniProt Q15116 25-288); assay: as above
T8 construct: also called N116Q PD-1; not shown: Flag tag
Procedure: as §1

[9] = target: B2; assay: as above
Procedure: as §1

[10] = target: B2; assay: flow cytometry on 293T cells expressing 4NQ PD-1, anti-mouse IgG-PE secondary
Procedure: as §1

[11] = target: T5, N49Q mutant PD-1 expressed on 293T …; assay: flow cytometry on 293T cells expressing N49Q PD-1, anti-mouse IgG-PE secondary
Procedure: as §1

[12] = target: T7, N74Q mutant PD-1 expressed on 293T …; assay: flow cytometry on 293T cells expressing N74Q PD-1, anti-mouse IgG-PE secondary
Procedure: as §1

[13] = target: T8, N116Q mutant PD-1 expressed on 293T …; assay: flow cytometry on 293T cells expressing N116Q PD-1, anti-mouse IgG-PE secondary
Procedure: as §1

[14] = target: T4, wild type (glycosylated) PD-1 expressed …; assay: inhibition of PD-L1-Fc binding to 293T cells overexpressing PD-1, IncuCyte fluorescence imaging
Procedure: Green fluorescence was measured every 2 hours by IncuCyte™ Zoom device and quantitated by IncuCyte™ Zoom Software (Essen BioScience, Ann Arbor, Mich., USA).

[15] = target: T4, wild type (glycosylated) PD-1 expressed …; assay: flow cytometry on 293T cells expressing wild type PD-1 against 293T cells expressing 4NQ PD-1, labeled secondary antibody
Procedure: as §1

[16] = target: T5, N49Q mutant PD-1 expressed on 293T …; assay: flow cytometry on 293T cells expressing the PD-1 variant, anti-mouse IgG-PE secondary, DAPI-negative population gated; percent of cells right of the dashed gate; 293T blank cells give 2.71
Procedure: as §1

[17] = target: T7, N74Q mutant PD-1 expressed on 293T …; assay: as above
Procedure: as §1

[18] = target: T8, N116Q mutant PD-1 expressed on 293T …; assay: as above
Procedure: as §1

[19] = target: B2; assay: as above
Procedure: as §1

[20] = target: T9, recombinant human PD-L1-Fc chimera protein (R&D Systems) (human, UniProt Q9NZQ7 19-239); assay: live-cell imaging (IncuCyte) of labeled PD-L1-Fc on 293T cells
T9 construct: Bought reagent; Used fluorescently labeled or detected with anti-human-Fc Alexa Fluor 488; also called PD-L1-Fc fusion protein; not shown: Fc portion, detected with anti-human IgG
T9 sequence (Q9NZQ7 19-239 limits assumed, change not shown): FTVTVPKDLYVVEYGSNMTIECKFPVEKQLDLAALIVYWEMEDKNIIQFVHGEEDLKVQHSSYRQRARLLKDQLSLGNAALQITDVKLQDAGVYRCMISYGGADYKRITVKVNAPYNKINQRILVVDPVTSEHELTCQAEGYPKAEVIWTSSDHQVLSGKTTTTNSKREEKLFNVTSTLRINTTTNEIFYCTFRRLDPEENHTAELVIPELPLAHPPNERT
Text: PD-L1 and PD-1 (PD-L1/PD-1) interaction assay. […] The secondary antibodies used were anti-human Alexa Fluor 488 dye conjugate (Life Technologies). The fluorescence intensity of Alexa Fluor 488 dye was then monitored using a real-time microscope IncuCyte (Essen BioScience, Ann Arbor, Mich., USA).
Ligand and receptor binding was quantified by IncuCyte™Zoom every hour, according to the manufacturer's instructions.

Binder: B1
binding result [1]: no binding (tested: 0.5 µg protein on the blot)
binding result [2]: no binding (tested: 0.5 µg protein on the blot)
Kd (PD-1-His): 296 nM
koff (PD-1-His): 0.0053 s⁻¹
kon (PD-1-His): 17900 M⁻¹ s⁻¹
fold MFI on wild type PD-1 against unglycosylated 4NQ mutant PD-1 [3]: ~43 fold
MFI [4]: 1140 MFI
MFI [5]: 32 MFI
MFI [6]: 413 MFI
MFI [7]: 29 MFI
MFI [8]: 31 MFI
MFI [9]: 26 MFI
binding result [10]: no binding
binding result [11]: no binding
binding result [12]: no binding
binding result [13]: no binding
EC50 [14]: 0.11 µg/mL
fold MFI against binding to the unglycosylated 4NQ mutant PD-1 [15]: ~43 times
Unit (%) (cells in the positive gate) [16]: 4.6%
Unit (%) (cells in the positive gate) [17]: 7.71%
Unit (%) (cells in the positive gate) [18]: 4.12%
Unit (%) (cells in the positive gate) [19]: 1.82%

Binder: B2
binding result [20]: no binding
